The nanobody polyreactivity screen of Harvey et al. (2022)

Assay: yeast display, Sf9 membrane polyspecificity reagent, FACS + sequencing; frameworks hold sequencing errors
Summary of the method: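 Polyreactivity labels are assigned by the sorting gate from which each nanobody was recovered. The gates were low and high (top ~1%), set on anti-HA fluorescence for expression and streptavidin fluorescence for reagent binding. Before sorting, galactose-induced (36–48 hours) yeast display cells were stained for 1 hour at 4 °C with 10% biotinylated, detergent-solubilized Sf9 membrane reagent.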

Sequence | polyreactivity (PSR sort gate)
QVQLVVSGGGLVQAGGRLRLSCAASGSSFVGYAMGWYRQAPGKERELVAAISRRGGSTYYADSVKGRFTISRDNAKNTVYLQMNRLKPEDTSVYYFAARFKVSYYNLYSYGYWRQGTQVTVSS | high polyreactivity
QDQLVESGGGLVQAGGSLRLSCAASGRIFDYNVMGWYRQAPGTEREFVADINGSGGGTNYADSVKGRFTISRDNAKNTVYFLMNSLKPEDTAVSYCNADSYEYHVPYYDYRYDYWGQGTQVTVSS | low polyreactivity
QVQLVESGGGLVQAGGSLRLSSAASGITYTPNAMGSYRQAPGKEREFVAAISVSGGSTYYADSVKGRFTISRDNAKYTVYLQMNSLKPEDTAVYYCATDFRRYAAKLYRYYYWGLGTQVTVSS | high polyreactivity
QVQLVESGGGLVQAGGSLRLSCAASGRTFRFYAMGWSRQAPGKERELGAAITGSGGSTYYADSVKGRFTISRDNAKNTVYLQMNCLKPEDTAVYYCAASRWREYHASKMDYWGQGTQVTVSS | low polyreactivity
QVQLVESGGGLVQAGGSLRISCAASGRIYPVYVMGWYRQAPGKERELVAAINYNGGSTTYADSVKGRFTISRDNAKNTVYLQMNSLKPADTAVYYCAAGTPAYVETEYEYWGQGTQVTVSS | low polyreactivity
QVQLVESGGGLVQAGGSLRLSCDASGRTFDVYTKGWYRQAPGKERELVDANNGGGSTYYADSVKGRFTISRDNAKNTVYLQMNSLKPEDPAVFYCAAKFRAGRSSYRGSPRYDSWGQGTHVTVSS | high polyreactivity
QVQLVESGGGLVQAGGSLRLSCAASGLTFPRNTMGWYRQAPGKERELVAVISSSGGITYYADSVKGRFTISRDNAKNTVYLQMNSLKPEDTAVYYCAARTRVPRMGYWGQGTQVTVSS | high polyreactivity
QVQLVESGGGLVQARGSHRLSCAASGSIFVINAMGWYRQAPGKERELVAAISYSGTGTYFADSVKGRFTISRDNAKNTVYLQMNSLKPEDTAVYYCAADYYYRYRIYDYWGQGTQVTVSS | low polyreactivity
QVQLVESAGGLVQAGASLRLSCAASGFIFRYNTKGWYRQAPGKEMELVATINRSGGSTYYADSVKGRFTISRDNAKNTVYLQMNSLKPVDTAVYYCAAVSLQPYYNAGATWDGDYWGQGTQVTVSS | high polyreactivity
QVQLVESGGGLVQAGGSLRLSCAASGSNFYLYAMGWYRQAPGKERELVAAITSIGGSTYADSVKGRFTISRDNAKNTVYLQMNSLKPEDTAVYYCNTDEYPLTVQVQYYYWGQGTQVTVSS | low polyreactivity
QVQLVESGGGLVQAGGSLRLSCAASGFIFSKYGMGWYRQAPGKERELVAAISIRGGNTYYADSVKGRFTISRDNAKNTVYLQMNSLKPEDTAVYYCNALSYGRYLNYRGGMDYWGQGTQVTVSS | high polyreactivity
QVQLVESGGGLVQAGGSLRLSCADSGRTFYQNAKGWYRQAPGKEREFVAAISWSSGSTYYADSVKGRFTISRDYAKNTVYLQMNSLKPEDTAVYYCAAYTSFPYIWYGYWGQGTQVTVSS | high polyreactivity
QVQLVESGGGLVQAGGSLRLSCAASGSTFNQYTMGWYRQAPGKERELVAAISKSGGSTYYADSVKGRFTISRDNAKNTVYFQMNSLKPEVTAVYYCAADRYYDYRVDYWGQGTQVTVSS | high polyreactivity
QVQLVESGGGLVQAGGSLRLSCAAAGITLYRYVMGWYRQAPGKERELVADISGRGTSTYYADSEKGRFTISRDNAKNTVYLQMNSLKPEDTAVYYCNAEYTKTGALVIPYTYYYAEDYWGQGTQVTVSS | low polyreactivity
QVQLVESGGGLVQVGGSLRLSCAASGRTFGRYAMGWYRQAPGKERELVAAINSVARTNYADSVKGRFTISRDNAKNTVYLHMNSLKPEDTAVYYCAARYYYSGVTHAKRIAYYYWGQGTQVTVSS | high polyreactivity
QVQLVESGGGLVQAGGSLRLSCAASGSTFGYNGMGWYRQGPGKERELVAAISGGARTYADSVKGRFTISRDNAKNTVYLQMNSLKPEDTAVYYCAADSPVSVTADDGYWGQGTQLTVSS | low polyreactivity
QVQLVESGGGLVQAGGSLRLSCAASGFTFSGYDMGWYRQAPGKERELVAGISSVDHTYYADSVKGRFTISRDNAKNTVYLQMNSLKPEDTAVYYCAATLWPYYYVEYDYWGQGTEVTVSS | low polyreactivity
QVQLVESGGGLVQAGGSLRLSCAASGNIFRIYAMGWYRQAPGKERALVAAITSRGAITNYADSVKGRFTISRDYAKNTVYLQMISLKPEDTAVYYCAASYRRLTGVGADEYWGQGTQVTVSS | high polyreactivity
QVQLVESGVGLVQAGGSLRLICAASGSTFQPNVMGWYRQAPGKERELDAAIRGSSGNTYYADSVKGRFTISRDHAKNTVYLQMNSLKPEDTAVYYCAALFLFKTSSPYRYYYWGQGTQVTVSS | high polyreactivity
QVQLVESGGGLFQAGGSLRLSCAASGSTIQQYAMGWYRQAPGKEREFVAAISWRGGRTYYADSVKGRFTISRDNAKNTVYLQMNRLKPEDTAVYYCAVDPSIYRLSAYYYDYWGQGTQVTVSS | low polyreactivity
QVQLVESAGGLVQAGGSLSLSCAASGSTFYKYTMGWDRQAPGKERELVAAISGSGTTTYYADSVKGRFTISRDNAKNTVYLQMNSLKPEDTAVYYCAAHSRSSSGYHWGQGTQVTVSS | high polyreactivity
QVQLVESGGGLVQAGGSLRLSCAASGIIIYKYAMGWDRQAPGTERELVAAITSGGGRTYYADSVKGRFTISRDNAKNTVYLQMNSLKPEDTAVYYCAATRPATYAAYDYWGQGTQVTVSS | high polyreactivity

Sequence | polyreactivity (PSR sort gate)
QVQLVESGGGLVQAGGSLRLSCAASGSIFYAYAMGWYRQAPGKEMELVAAIDTSGGRTYYADSVKGRFTISRDNAKNTVYLQLNSLKPEDTAVYYCDAECPCYNEHYYWGQGTQVTVSS | high polyreactivity
QVQLVESGGGLFQAGGSLRLSCAASGSTFRFNAKGWYRQAPGKERQFVAAIRFTGGSTYYADSVKGRFTISRDNAKNTVYLQMNSLKPEDTAVYYCINADEYSTVEYDYWGQGTQVSVSS | low polyreactivity
QVQLVDSGGGLVQAGGSLRLSCAASGSTFYGYTMGWYRQAPGKERELVAAITSSGGSTYYADTVKGRFTISRDNAKNTVYLQMNSLNPEDTAVYYCAARGYRHFYYWGQGTQVTVSS | high polyreactivity
QVQLVESGGGLVQAGGSLRLSCAASGYTYYRYAMGWYRQAPGKERELVAAISSSGGTYYADSVKGRFTISRDNAKNTVYLQMNSLKPEDTAVYYSAAEGYYLYNAGLWGYDYWGQGTQVTVSS | low polyreactivity
QVQLVESGGGLVQAGGSLRLSCAATGSIFFINAMGWYRQAPGKERELVAAITWDGGSTYYADSVKGRFTISRVNAKNTVYLQMNSLKPEDTAVYYCAAVADYYDFISPPLDYWGQGTQVNVSS | low polyreactivity
QVQLVETGAGLVQAGGSLRLSCAPSGNTLGPYAKGWYRQGPGKERELVAAITWSGGITDYADSVKGRLTISRDNAKKTVYLQMNSLKPEDTAVYYCATKLTYTLTSGAYAYDYWGQGTQVTVSS | low polyreactivity
QVQLVESGGGLVQAGGSLRISCAASGSTFGVNARGWYRQAPGKERELVAGITWTGGSTYYADSVKGRFTISRDNAKNTVYVQMNSLKPEDTAVYFCAKAWYSSYYDDSEDSWGQGTQVTVSS | low polyreactivity
QVQLVESGGGLVQAGASLRLSCAASGITFWGYAMGWYRQAPGKEREFVARINWSGGRTYYAESVKGRFTISRDNAKNTVYLEMNSLKPEDTAVYDCAATSLIYGYRTYDYWGQGTQVTVSS | high polyreactivity
QVQLVESGGGLVQAGGSLRLSCAASGRTFVTNAMGWYRQAPGKETELVAAISGTGGSTYYADSVKGRFTISRDNAKNTVYLQMNSLKPEDTAVYYCAAQKWRRGRYRDTAGPLFAYDYWGQGTQVTVSS | low polyreactivity
QVKLVESGRGLVQAGCSLRITCAASGGTLDNNAMGRYRQAPGKERELVAAISSSGSRTYYADSVKGRFTISRDHAKNSVYLQMNSLKPEDTAVYYCAARRYVRRYYWGQGTQVTVSS | high polyreactivity
QVQLVESGGGLVQAGGSLRLSCAASGFTFDYNAMGWYRQAPGKERELVASIDQSGGSTYYADSVKGRFTISRDNAKNTVYLQMNSLKPEDTAVYYCAAEGYYTSTYDLYDYYYWGQGTQVTVSS | low polyreactivity
QVQLVESGGGLVQAGGSLRLSCAASRSIFTWYAMGWYIQEPGKERELVAAITRGGSTYADSVKWRFTISRDNAKYTVYLLMNSLKPEDTAVYDCNAFYGVYDFNYWGQGTHVTVSS | low polyreactivity
QVQLLESWGGLVQAGGSLRLSCAASGRTSTRNAMGWSRQAPGKERELVAAISWSGGRTHYADSVKWRFTISRDNAMNYVYYQMNSLKQEATAVYYCAAAYTGGQYYYSWGQGTQVSVSS | high polyreactivity
QVQLVESGGGLVQAGGSLRLSCAASGRIFFVYAMGWYRQAPGKERELVAAITSSGGGTYYADSVKGRFTISRDNAKNTVYLQMNSLKPEDTAVYYCATRYPYRPGYEYWGQGTQVTVSS | low polyreactivity
QVQLVESGVRLGQAGGSLRLSCAASGSIFLRYAMGWFRPAPGKERELVATISQRGSTYYADSVKGRFTISRDNAKNTVYLKKNSLKPEDTAVYYCNAVGRARTLGSNTYGYWGQGTQVTVSS | high polyreactivity
QVQLVESGGGLVQAGGSLRLSCAAYRFIFATNTMGCYRQAPGKETELVAASSTYYADSVNGRFTISRDNAKNTVYLQMNSLKPEDNAVYYCNADRDSYIGFVDWAGEYWGQGTQVTVSS | low polyreactivity
QVQLVESGGGVVQAGGSLRLSCAASGSTFSAYTMGWYRQAPGKERELVAAISRSGVSTYYADSVKGRFTISRDNAKNTVYLQMNSLKPEDTAVYYCAAPYFVSYQGYDYCGQGTQVTVSS | high polyreactivity
QVQLVESGGGLVPAGGSLRLSCAASGRIFRGYAMGWYRQAHGKEREFVAAITKNGGTTYYADSVKGRFTISRDNAKNTVYLQMNSLKPEDTAVYYCNKDGYPWPPNLDYWGQGTQVTVSS | low polyreactivity
QVQLVESGGGLVQAGGSLRLSCAASGLIFDANAMGWYRLAPVKERELVAAITGSGGRTYSADSVKGRFTISRDTANYTVYCQMNCLKPEATGVYYCAASSKRKVLYNYWGQGTQVTVSS | high polyreactivity
QFQLVESGGGLVQAGGSLRLSCAASGFIFGLYAMGWYRQAPGKERELVAAISRSGGSTYYADSVKGRFTISRDNAKNTVYLQMNSLKPEDTAVYYCNARYSWPRANWYDYWGQGTQVTVSS | high polyreactivity
QVQLVESGGGLVQAGGSLRLSCAASGSTFSSYAMGWYRQAPGKDRELVAAISSRGGRTYYADSVKGRFTISRDNAKNTVYLQMNSLKPEDTAVYYCNAPTSALRQGKDYGYWGQGTQVTVSS | high polyreactivity
